Experimental data published in paper PMC3120740, “WRKY Transcription Factors Involved in Activation of SA Biosynthesis Genes”.

Experiments:
Conditions in all cases: protein: recombinant; tags: N-terminal GST (pGEX-KG); label: 32P-dCTP end-fill (Klenow); 5'-GGG overhangs filled in with Klenow
[1] = target: T1, GST-WRKY28 (Arabidopsis thaliana, UniProt Q8VWJ2 1-318); assay: EMSA; 0.5 ug protein, ~0.01 pmol probe; 3 uL 5x buffer (20% glycerol, 5 mM MgCl2, 2.5 mM EDTA, 2.5 mM DTT, 250 mM NaCl, 50 mM Tris-HCl pH 7.5, 0.25 mg/mL poly(dI-dC)) in 14 uL + 1 uL probe (final about 50 mM NaCl, 10 mM Tris, 1 mM MgCl2); room temperature, 20 min
T1 sequence (Q8VWJ2 whole entry): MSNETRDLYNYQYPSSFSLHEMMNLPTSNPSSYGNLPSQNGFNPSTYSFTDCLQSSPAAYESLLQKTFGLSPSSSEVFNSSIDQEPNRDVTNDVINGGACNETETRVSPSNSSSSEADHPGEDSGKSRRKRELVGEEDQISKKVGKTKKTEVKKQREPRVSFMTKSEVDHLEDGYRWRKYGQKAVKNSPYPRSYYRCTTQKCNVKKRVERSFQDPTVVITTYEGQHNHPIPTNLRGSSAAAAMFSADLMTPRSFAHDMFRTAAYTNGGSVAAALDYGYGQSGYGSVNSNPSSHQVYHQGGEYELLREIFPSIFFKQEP

[2] = target: T1, GST-WRKY28; assay: EMSA; as strong as wild type; 0.5 ug protein, ~0.01 pmol probe; 3 uL 5x buffer (20% glycerol, 5 mM MgCl2, 2.5 mM EDTA, 2.5 mM DTT, 250 mM NaCl, 50 mM Tris-HCl pH 7.5, 0.25 mg/mL poly(dI-dC)) in 14 uL + 1 uL probe (final about 50 mM NaCl, 10 mM Tris, 1 mM MgCl2); room temperature, 20 min
[3] = target: T1, GST-WRKY28; assay: EMSA; unaltered binding; 0.5 ug protein, ~0.01 pmol probe; 3 uL 5x buffer (20% glycerol, 5 mM MgCl2, 2.5 mM EDTA, 2.5 mM DTT, 250 mM NaCl, 50 mM Tris-HCl pH 7.5, 0.25 mg/mL poly(dI-dC)) in 14 uL + 1 uL probe (final about 50 mM NaCl, 10 mM Tris, 1 mM MgCl2); room temperature, 20 min

Binder | binding result [1] | other results
m2 (dsDNA) DNA 1: ATTTCTGACTATTTCAATTTCCGGAGATAT DNA 2: ATATCTCCGGAAATTGAAATAGTCAGAAAT | binds | 
ICS1 -844 WK-like box (dsDNA) DNA 1: AATAGTATTGATTTTCCAAATTTAATTATA DNA 2: TATAATTAAATTTGGAAAATCAATACTATT | no binding | 
m1 (dsDNA) DNA 1: ATTTCCCGGTATTTCAATTTGTCAAGATAT DNA 2: ATATCTTGACAAATTGAAATACCGGGAAAT | binds | 
m2.5 (dsDNA) DNA 1: ATTTCCCGGTATTTCAATTTGTCAGAATAT DNA 2: ATATTCTGACAAATTGAAATACCGGGAAAT |  | binding result [2]: binds
m2.4 (dsDNA) DNA 1: ATTTCCCGGTATTTCAATTTGTCACCATAT DNA 2: ATATGGTGACAAATTGAAATACCGGGAAAT | binds | 
m2.8 (dsDNA) DNA 1: ATTTCCCGGTATTTCAATTTGTCAAGGGAT DNA 2: ATCCCTTGACAAATTGAAATACCGGGAAAT |  | binding result [3]: binds
ICS1 -278 (dsDNA) DNA 1: CTAATAATAATAGATCAAACAATTAACTGA DNA 2: TCAGTTAATTGTTTGATCTATTATTATTAG | no binding | 
ICS1 -648 (dsDNA) DNA 1: TTGCAATTTGTAGTGACATGTAATGTTTTT DNA 2: AAAAACATTACATGTCACTACAAATTGCAA | no binding | 
m2.3 (dsDNA) DNA 1: ATTTCCCGGTATTTCAATTTGTGGAGATAT DNA 2: ATATCTCCACAAATTGAAATACCGGGAAAT | no binding | 
m2.1 (dsDNA) DNA 1: ATTTCCCGGTATTTCAATGGGTCAAGATAT DNA 2: ATATCTTGACCCATTGAAATACCGGGAAAT | binds | 
m1+2 (dsDNA) DNA 1: ATTTCCCGGTATTTCAATTTCCGGAGATAT DNA 2: ATATCTCCGGAAATTGAAATACCGGGAAAT | no binding | 
ICS1 -725 (dsDNA) DNA 1: ATTTTAGAAATGTGTCAAAATTTAAAGGAG DNA 2: CTCCTTTAAATTTTGACACATTTCTAAAAT | no binding | 
m2.2 (dsDNA) DNA 1: ATTTCCCGGTATTTCAATTTCCCAAGATAT DNA 2: ATATCTTGGGAAATTGAAATACCGGGAAAT | no binding | 
m2.7 (dsDNA) DNA 1: ATTTCCCGGTATTTCACCTTGTCAAGATAT DNA 2: ATATCTTGACAAGGTGAAATACCGGGAAAT | no binding | 
